Data from the supplement of paper PMC10567573.

B1: SMG5 (parent)
chain: TRKLSPGKKRCKDIKRLLVNFMYL
B2: ZBED3 (parent)
chain: QARLRDVSRREGALGWAPAAPPPL
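Further: lentivirally expressed fusions sorted by FACS into six bins by GFP to DsRed ratio, PSI derived from sequencing read proportions per bin multiplied by bin number.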

Variants of: B1
Assay: protein stability index of a GFP-peptide fusion (GPS, HEK-293T) (PSI 1-6); higher = more stable
Settings: c terminus: a fixed tail appended
TRKLSPGKKRCKDIKRLLNNFMYL [V19N] gave a protein stability index of 2.21.
In the case of TRKLSPGKKRCKDIKRYLVNFMYL [L17Y], the protein stability index is reported as 2.65.
In the case of TRKLSPGKKRCKDIKRVLVNFMYL [L17V], the protein stability index is reported as 1.
For TRKLSPGKKRCKDIKRMLVNFMYL [L17M], the protein stability index was 2.12.
TRKLSPGKKRCKDIKRSLVNFMYL [L17S] showed a protein stability index of 2.56.
For TRKLSPGKKRCKDIKRRLVNFMYL [L17R], the protein stability index was 1.84.
Work on TRKLSPGKKRCKDIKRDLVNFMYL [L17D] yielded a protein stability index of 2.24.
For TRKHSPGKKRCKDIKRLLVNFMYL [L4H], the protein stability index was 2.64.
For TRKRSPGKKRCKDIKRLLVNFMYL [L4R], the protein stability index was 1.15.
With TRKISPGKKRCKDIKRLLVNFMYL [L4I] the protein stability index was 3.12.
For TRKTSPGKKRCKDIKRLLVNFMYL [L4T], the protein stability index was 1.62.
With TRKDSPGKKRCKDIKRLLVNFMYL [L4D] the protein stability index was 1.33.
For TRKYSPGKKRCKDIKRLLVNFMYL [L4Y], the protein stability index was 2.63.
TRKCSPGKKRCKDIKRLLVNFMYL [L4C] gave a protein stability index of 2.54.
Variant TRKLSPGKKRCKDIKRLLVEFMYL [N20E] has a protein stability index of 3.09.
TRKLSPGKKRCKDIKRLLVPFMYL [N20P] gave a protein stability index of 3.07.
Variant TRKLSPGKKRCKDIKRLLVYFMYL [N20Y] has a protein stability index of 2.56.
Work on TRKLSPGKKRCKDIKRLLVDFMYL [N20D] yielded a protein stability index of 3.56.
With TRKLSPGKKRCKDIKRLLVHFMYL [N20H] the protein stability index was 3.2.
TRKLSPGKKRCKDIKRLLVFFMYL [N20F] showed a protein stability index of 4.01.
In the case of TRKLSPGKKRCKDIKRLLVIFMYL [N20I], the protein stability index is reported as 3.42.
Variant TRKLSPGKKRCKDIKRLLVVFMYL [N20V] has a protein stability index of 2.79.
TRKLSPGKKRCKDIKRLLVQFMYL [N20Q] showed a protein stability index of 3.52.
TRKLSPGKKRCKDIKRLLVNFMIL [Y23I] gave a protein stability index of 3.31.
With TRKLSPGKKRCKDIKRLLVNFMPL [Y23P] the protein stability index was 1.81.
TRKLSPGKKRCKDIKRLLVNFMHL [Y23H] showed a protein stability index of 2.35.
TRKLSPGKKRCKDIKRLLVNFMAL [Y23A] showed a protein stability index of 2.85.
TRKLSPGKKRCKDIKRLLVNFMTL [Y23T] gave a protein stability index of 2.18.
TRKLSPGKKRCKDIKRLLVNFMVL [Y23V] gave a protein stability index of 4.04.
Work on TRKLSPGKKRCKDIKRLLVNFMRL [Y23R] yielded a protein stability index of 2.05.
In the case of TRKLSPGKKRCKDIKRLLVNFMSL [Y23S], the protein stability index is reported as 3.81.
In the case of TRKLSPGKKRCKDIKRLLVNFTYL [M22T], the protein stability index is reported as 2.11.
TRKLSPGKKRCKDIKRLLVNFPYL [M22P] showed a protein stability index of 2.39.
For TRKLSPGKKRCKDIKRLLVNFDYL [M22D], the protein stability index was 2.34.
In the case of TRKLSPGKKRCKDIKRLLVNFEYL [M22E], the protein stability index is reported as 2.45.
With TRKLSPGKKRCKDIKRLLVNFYYL [M22Y] the protein stability index was 2.96.
TRKLSPGKKRCKDIKRLLVNFRYL [M22R] showed a protein stability index of 2.4.
Variant TRKLSPGKKRCKDIKRLLVNFQYL [M22Q] has a protein stability index of 1.34.
With TRKLSPGKKRCKDIKRLLVNFHYL [M22H] the protein stability index was 1.65.
For TRKLSPGKKRCKDIKRLLVNFCYL [M22C], the protein stability index was 1.75.
Variant TRKLSPGKKRGKDIKRLLVNFMYL [C11G] has a protein stability index of 1.42.
Work on TRKLSPGKKRDKDIKRLLVNFMYL [C11D] yielded a protein stability index of 1.79.
Work on TRKLSPGKKRQKDIKRLLVNFMYL [C11Q] yielded a protein stability index of 1.39.
TRKLSPGKKRHKDIKRLLVNFMYL [C11H] showed a protein stability index of 1.58.
In the case of TRKLSPGKKRTKDIKRLLVNFMYL [C11T], the protein stability index is reported as 1.59.
Work on TRKLSPGKKRWKDIKRLLVNFMYL [C11W] yielded a protein stability index of 3.27.
Work on TRKLSPGKKRAKDIKRLLVNFMYL [C11A] yielded a protein stability index of 3.02.
Work on TRKLSPGKKRIKDIKRLLVNFMYL [C11I] yielded a protein stability index of 4.05.
TRKLSPGKKRFKDIKRLLVNFMYL [C11F] showed a protein stability index of 3.81.
TRKLSPGKKRCKDDKRLLVNFMYL [I14D] gave a protein stability index of 1.56.
For TRKLSPGKKRCKDWKRLLVNFMYL [I14W], the protein stability index was 2.49.
TRKLSPGKKRCKDQKRLLVNFMYL [I14Q] gave a protein stability index of 1.5.
Variant TRKLSPGKKRCKDVKRLLVNFMYL [I14V] has a protein stability index of 2.2.
For TRKLSPGKKRCKDAKRLLVNFMYL [I14A], the protein stability index was 2.13.
With TRKLSPGKKRCKDKKRLLVNFMYL [I14K] the protein stability index was 1.19.
TRKLSPGKKRCKDRKRLLVNFMYL [I14R] showed a protein stability index of 2.19.
In the case of TRKLSPGKKRCKDPKRLLVNFMYL [I14P], the protein stability index is reported as 3.95.
In the case of TRKLSPGKKRCKDLKRLLVNFMYL [I14L], the protein stability index is reported as 2.27.
Work on TRKLSPGKKRCKDIKRLDVNFMYL [L18D] yielded a protein stability index of 1.76.
In the case of TRKLSPGKKRCKDIKRLYVNFMYL [L18Y], the protein stability index is reported as 2.5.
Work on TRKLSPGKKRCKDIKRLMVNFMYL [L18M] yielded a protein stability index of 3.27.
In the case of TRKLSPGKKRCKDIKRLVVNFMYL [L18V], the protein stability index is reported as 2.52.
For TRKLSPGKKRCKDIKRLNVNFMYL [L18N], the protein stability index was 1.55.
In the case of TRKLSPGKKRCKDIKRLTVNFMYL [L18T], the protein stability index is reported as 1.65.
Work on TRKLSPGKKRCKDIKRLKVNFMYL [L18K] yielded a protein stability index of 1.54.
Work on TRKLSPGKKRCKDIKRLHVNFMYL [L18H] yielded a protein stability index of 1.6.
TRKLSPGKKRCKDIKRLLVNYMYL [F21Y] showed a protein stability index of 1.76.
Variant TRKLSPGKKRCKDIKRLLVNEMYL [F21E] has a protein stability index of 1.75.
TRKLSPGKKRCKDIKRLLVNHMYL [F21H] showed a protein stability index of 1.49.
Work on TRKLSPGKKRCKDIKRLLVNPMYL [F21P] yielded a protein stability index of 1.6.
TRKLSPGKKRCKDIKRLLVNAMYL [F21A] gave a protein stability index of 1.76.
With TRKLSPGKKRCKDIKRLLVNNMYL [F21N] the protein stability index was 1.97.
With TRKLSPGKKRCKDIKRLLVNKMYL [F21K] the protein stability index was 2.12.
In the case of TRKLSPGKKRCKDIKRLLVNIMYL [F21I], the protein stability index is reported as 3.19.
Variant RRKLSPGKKRCKDIKRLLVNFMYL [T1R] has a protein stability index of 4.28.
In the case of WRKLSPGKKRCKDIKRLLVNFMYL [T1W], the protein stability index is reported as 1.45.
IRKLSPGKKRCKDIKRLLVNFMYL [T1I] showed a protein stability index of 1.95.
Work on MRKLSPGKKRCKDIKRLLVNFMYL [T1M] yielded a protein stability index of 2.88.
In the case of TRKLSPGKERCKDIKRLLVNFMYL [K9E], the protein stability index is reported as 2.32.
For TRKLSPGKGRCKDIKRLLVNFMYL [K9G], the protein stability index was 1.4.
TRKLSPGKYRCKDIKRLLVNFMYL [K9Y] gave a protein stability index of 2.15.
TRKLSPGKMRCKDIKRLLVNFMYL [K9M] gave a protein stability index of 2.31.
TRKLSPGKVRCKDIKRLLVNFMYL [K9V] gave a protein stability index of 2.04.
For TRKLSPGKSRCKDIKRLLVNFMYL [K9S], the protein stability index was 2.86.
Variant TRKLSPGKPRCKDIKRLLVNFMYL [K9P] has a protein stability index of 2.4.
TRKLSPLKKRCKDIKRLLVNFMYL [G7L] gave a protein stability index of 4.07.
TRKLSPNKKRCKDIKRLLVNFMYL [G7N] showed a protein stability index of 2.08.
With TRKLSPVKKRCKDIKRLLVNFMYL [G7V] the protein stability index was 2.47.
TRKLSPIKKRCKDIKRLLVNFMYL [G7I] showed a protein stability index of 2.87.
In the case of TRKLSPSKKRCKDIKRLLVNFMYL [G7S], the protein stability index is reported as 2.17.
For TRKLSPTKKRCKDIKRLLVNFMYL [G7T], the protein stability index was 2.22.
For TRKLSPRKKRCKDIKRLLVNFMYL [G7R], the protein stability index was 2.47.

Variants of: B2
Assay: as above
Settings: c terminus: a fixed tail appended
With QARLRDVSRREGALGWAPAALPPL [P21L] the protein stability index was 2.67.
In the case of QARLRDVSRREGALGWAPAAYPPL [P21Y], the protein stability index is reported as 2.02.
